Tests used:
[1] = target: thrombin protease (Amersham Biosciences); assay: cell-based or functional assay
[2] = target: GFP^2-RG-RLuc fusion protein (UniProt P27652)
[3] = target: GFP^2-RG-RLuc2 (GTR2) (UniProt P27652)
Sequence of GFP^2-RG-RLuc2 (GTR2) (P27652 other isoform, or with tags, fused parts or gaps): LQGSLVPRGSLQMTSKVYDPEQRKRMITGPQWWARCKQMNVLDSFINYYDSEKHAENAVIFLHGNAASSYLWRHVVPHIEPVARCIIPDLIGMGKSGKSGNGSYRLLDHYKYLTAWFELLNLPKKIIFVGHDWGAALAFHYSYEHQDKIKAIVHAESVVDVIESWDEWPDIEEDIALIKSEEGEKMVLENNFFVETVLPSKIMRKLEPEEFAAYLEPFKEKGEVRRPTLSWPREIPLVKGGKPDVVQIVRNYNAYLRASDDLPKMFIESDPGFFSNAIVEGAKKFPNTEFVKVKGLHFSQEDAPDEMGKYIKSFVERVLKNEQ

Sequence of GFP^2-RG-RLuc fusion protein (P27652 other isoform, or with tags, fused parts or gaps): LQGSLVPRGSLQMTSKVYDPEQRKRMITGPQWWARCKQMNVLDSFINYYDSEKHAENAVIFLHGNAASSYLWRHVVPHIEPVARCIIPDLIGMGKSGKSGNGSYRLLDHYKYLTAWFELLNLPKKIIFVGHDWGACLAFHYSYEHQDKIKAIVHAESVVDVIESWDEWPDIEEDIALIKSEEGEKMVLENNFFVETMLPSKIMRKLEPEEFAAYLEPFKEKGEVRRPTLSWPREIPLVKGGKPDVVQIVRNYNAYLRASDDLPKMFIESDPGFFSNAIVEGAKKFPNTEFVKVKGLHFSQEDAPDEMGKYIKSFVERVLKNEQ
Sequence of Recombinant hirudin from yeast (Sigma) (P01050 whole entry): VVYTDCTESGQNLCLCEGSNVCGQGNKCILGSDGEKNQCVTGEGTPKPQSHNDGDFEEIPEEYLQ

| Substance | BRET^H ratio of the sensor with thrombin after pre-addition of hirudin [1] | BRET^H ratio following thrombin cleavage [2] | SDS-PAGE of the sensor after thrombin treatment [2] | bioluminescence spectrum of the sensor after thrombin [2] | change of BRET^2 ratio (GFP/RLuc) at 270 pM thrombin [2] | decrease in BRET^2 signal, on-chip mixing of 1 µM sensor with 540 nM thrombin and substrate [2] | decrease of the BRET^H ratio following thrombin cleavage [2] | detection limit for thrombin, microchip BRET^H [2] | detection limit for thrombin, microplate BRET^H [2] | hybrid BRET ratio following thrombin cleavage [2] | lowest thrombin concentration observable in real time (120 seconds), side-by-side network [2] | lowest thrombin concentration tested and detected, pancake stack network [2] | thrombin concentration detected easily, pancake stack network (478 second residence time) [2] | upper end of the linear change of BRET^H ratio with thrombin concentration, microfluidic [2] | upper end of the linear change of BRET^H ratio with thrombin concentration, microplate [2] | change of BRET^2 ratio of GTR2 after 2 units of thrombin in diluted milk and orange juice [3] |
| --- | --- | --- | --- | --- | --- | --- | --- | --- | --- | --- | --- | --- | --- | --- | --- | --- |
| Recombinant hirudin from yeast (Sigma) (from UniProt P01050 1-65) | 1.08 | – | – | – | – | – | – | – | – | – | – | – | – | – | – | – |
| thrombin protease (Amersham Biosciences) | – | from 1.11±0.06 to 0.75±0.04 | the fusion protein was cleaved into two components with molecular weights of 32.4 KDa and 36.4 KDa | Upon thrombin cleavage the green component of the spectrum was reduced | 10 fold | Approximately 75% decrease in BRET^2 signal | by approximately 32% | 27 pM | 310 pM | 0.79 | 540 nM | Thrombin was detected down to 14 nM, the lowest concentration tested | 27 nM thrombin could be detected easily | up to 0.24 nM for microfluidic measurements | 2.7 nM for microplate measurements | Thrombin activity was detected in 1/10 dilutions of milk and orange juice |
